# US20210388110A1 (published 2021)
# Biological target: T1, soluble human CD3ε chain (human, UniProt P07766 23-126, limits assumed)
# T1 construct: the text says soluble human CD3ε chain; also called human CD3 epsilon chain
# Assay: SPR (Biacore)
# T1 sequence (P07766 23-126 limits assumed): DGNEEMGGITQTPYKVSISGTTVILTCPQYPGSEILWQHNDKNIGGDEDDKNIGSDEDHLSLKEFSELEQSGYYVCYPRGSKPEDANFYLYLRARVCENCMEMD
row,Binder,Kd [nM]
1,"TR01H067-E22Hh/none-Hi-Kn010G3/L0212-k0 (antibody, human IgG1, kappa, L234A L235A, N297A, single-arm) heavy: QVQLVESGGGLVQPGRSLRLSCAASGFTFSNAWMHWVRQAPGKGLEWVAQIKDKSQNYATYYAESVKGRFTISRDDSKNSLYLQMNSLKTEDTAVYYCRYVHYAASYGVDAWGQGTTVTVSSASTKGPSVFPLAPSSKSTSGGTAALGCLVKDYFPEPVTVSWNSGALTSGVHTFPAVLQSSGLYSLSSVVTVPSSSLGTQTYICNVNHKPSNTKVDKKVEPKSCDKTHTCPPCPAPEAAGGPSVFLFPPKPKDTLMISRTPEVTCVVVDVSHEDPEVKFNWYVDGVEVHNAKTKPREEQYASTYRVVSVLTVLHQDWLNGKEYKCKVSNKALPAPIEKTISKAKGQPREPQVYTLPPSRCELTKNQVSLSCAVKGFYPSDIAVEWESNGQPENNYKTTPPVLDSDGSFFLVSKLTVDKSRWQQGNVFSCSVMHEALHNHYTQKSLSLSPDYKDDDDK EPKSSDKTHTCPPCPAPELLGGPSVFLFPPKPKDTLMISRTPEVTCVVVDVSHEDPEVKFNWYVDGVEVHNAKTKPREEQYNSTYRVVSVLTVLHQDWLNGKEYKCKVSNKALPAPIEKTISKAKGQPREPQVCTLPPSRDELTKNQVSLWCLVKGFYPSDIAVEWESNGQPENNYKTTPPVLDSDGSFFLYSKLTVDKSRWQQGNVFSCSVMHEALHNRYTQKSLSLSP light: DIVMTQSPLSLPVTPGEPASISCRPSQSPVHSNRNTYLHWYQQKPGQAPRLLIYKVSNRFSGVPDRFSGSGSGTDFTLKISRVEAEDVGVYYCYQGTQVPYTFGQGTKLEIKRTVAAPSVFIFPPSDEQLKSGTASVVCLLNNFYPREAKVQWKVDNALQSGNSQESVTEQDSKDSTYSLSSTLTLSKADYEKHKVYACEVTHQGLSSPVTKSFNRGEC",5.88
2,"TR01H071-E22Hh/none-Hi-Kn010G3/L0000-k0 (antibody, human IgG1, kappa, L234A L235A, N297A, single-arm) heavy: QVQLVESGGGLVQPGRSLRLSCAASGFTFSNAWMHWVRQAPGKGLEWVAQIKDKSNNYATYYAESVKGRFTISRADSKNSIYLQMNSLKTEDTAVYYCRYVHYAASYGVDIWGQGTTVTVSSASTKGPSVFPLAPSSKSTSGGTAALGCLVKDYFPEPVTVSWNSGALTSGVHTFPAVLQSSGLYSLSSVVTVPSSSLGTQTYICNVNHKPSNTKVDKKVEPKSCDKTHTCPPCPAPEAAGGPSVFLFPPKPKDTLMISRTPEVTCVVVDVSHEDPEVKFNWYVDGVEVHNAKTKPREEQYASTYRVVSVLTVLHQDWLNGKEYKCKVSNKALPAPIEKTISKAKGQPREPQVYTLPPSRCELTKNQVSLSCAVKGFYPSDIAVEWESNGQPENNYKTTPPVLDSDGSFFLVSKLTVDKSRWQQGNVFSCSVMHEALHNHYTQKSLSLSPDYKDDDDK EPKSSDKTHTCPPCPAPELLGGPSVFLFPPKPKDTLMISRTPEVTCVVVDVSHEDPEVKFNWYVDGVEVHNAKTKPREEQYNSTYRVVSVLTVLHQDWLNGKEYKCKVSNKALPAPIEKTISKAKGQPREPQVCTLPPSRDELTKNQVSLWCLVKGFYPSDIAVEWESNGQPENNYKTTPPVLDSDGSFFLYSKLTVDKSRWQQGNVFSCSVMHEALHNRYTQKSLSLSP light: DIVMTQSPLSLPVTPGEPASISCRSSQSLVHSNRNTYLHWYQQKPGQAPRLLIYKVSNRFSGVPDRFSGSGSGTDFTLKISRVEAEDVGVYYCGQGTQVPYTFGQGTKLEIKRTVAAPSVFIFPPSDEQLKSGTASVVCLLNNFYPREAKVQWKVDNALQSGNSQESVTEQDSKDSTYSLSSTLTLSKADYEKHKVYACEVTHQGLSSPVTKSFNRGEC",8.85
3,"TR01H067-E22Hh/none-Hi-Kn010G3/L0262-k0 (antibody, human IgG1, kappa, L234A L235A, N297A, single-arm) heavy: QVQLVESGGGLVQPGRSLRLSCAASGFTFSNAWMHWVRQAPGKGLEWVAQIKDKSQNYATYYAESVKGRFTISRDDSKNSLYLQMNSLKTEDTAVYYCRYVHYAASYGVDAWGQGTTVTVSSASTKGPSVFPLAPSSKSTSGGTAALGCLVKDYFPEPVTVSWNSGALTSGVHTFPAVLQSSGLYSLSSVVTVPSSSLGTQTYICNVNHKPSNTKVDKKVEPKSCDKTHTCPPCPAPEAAGGPSVFLFPPKPKDTLMISRTPEVTCVVVDVSHEDPEVKFNWYVDGVEVHNAKTKPREEQYASTYRVVSVLTVLHQDWLNGKEYKCKVSNKALPAPIEKTISKAKGQPREPQVYTLPPSRCELTKNQVSLSCAVKGFYPSDIAVEWESNGQPENNYKTTPPVLDSDGSFFLVSKLTVDKSRWQQGNVFSCSVMHEALHNHYTQKSLSLSPDYKDDDDK EPKSSDKTHTCPPCPAPELLGGPSVFLFPPKPKDTLMISRTPEVTCVVVDVSHEDPEVKFNWYVDGVEVHNAKTKPREEQYNSTYRVVSVLTVLHQDWLNGKEYKCKVSNKALPAPIEKTISKAKGQPREPQVCTLPPSRDELTKNQVSLWCLVKGFYPSDIAVEWESNGQPENNYKTTPPVLDSDGSFFLYSKLTVDKSRWQQGNVFSCSVMHEALHNRYTQKSLSLSP light: DIVMTQSPLSLPVTPGEPASISCRSSQPPVHSNRNTYLHWYQQKPGQAPRLLIYKVSNRFSGVPDRFSGSGSGTDFTLKISRVEAEDVGVYYCAQGTQVPYTFGQGTKLEIKRTVAAPSVFIFPPSDEQLKSGTASVVCLLNNFYPREAKVQWKVDNALQSGNSQESVTEQDSKDSTYSLSSTLTLSKADYEKHKVYACEVTHQGLSSPVTKSFNRGEC",49.2
4,"TR01H067-E22Hh/none-Hi-Kn010G3/TR01L016-k0 (antibody, human IgG1, kappa, L234A L235A, N297A, single-arm) heavy: QVQLVESGGGLVQPGRSLRLSCAASGFTFSNAWMHWVRQAPGKGLEWVAQIKDKSQNYATYYAESVKGRFTISRDDSKNSLYLQMNSLKTEDTAVYYCRYVHYAASYGVDAWGQGTTVTVSSASTKGPSVFPLAPSSKSTSGGTAALGCLVKDYFPEPVTVSWNSGALTSGVHTFPAVLQSSGLYSLSSVVTVPSSSLGTQTYICNVNHKPSNTKVDKKVEPKSCDKTHTCPPCPAPEAAGGPSVFLFPPKPKDTLMISRTPEVTCVVVDVSHEDPEVKFNWYVDGVEVHNAKTKPREEQYASTYRVVSVLTVLHQDWLNGKEYKCKVSNKALPAPIEKTISKAKGQPREPQVYTLPPSRCELTKNQVSLSCAVKGFYPSDIAVEWESNGQPENNYKTTPPVLDSDGSFFLVSKLTVDKSRWQQGNVFSCSVMHEALHNHYTQKSLSLSPDYKDDDDK EPKSSDKTHTCPPCPAPELLGGPSVFLFPPKPKDTLMISRTPEVTCVVVDVSHEDPEVKFNWYVDGVEVHNAKTKPREEQYNSTYRVVSVLTVLHQDWLNGKEYKCKVSNKALPAPIEKTISKAKGQPREPQVCTLPPSRDELTKNQVSLWCLVKGFYPSDIAVEWESNGQPENNYKTTPPVLDSDGSFFLYSKLTVDKSRWQQGNVFSCSVMHEALHNRYTQKSLSLSP light: DIVMTQSPLSLPVTPGEPASISCRSSQSPVHSNRNTYLHWYLQKPGQSPQLLIYKVSNRFSGVPDRFSGSGSGTDFTLKISRVEAEDVGVYYCYQGTQVPYTFGQGTKLEIKRTVAAPSVFIFPPSDEQLKSGTASVVCLLNNFYPREAKVQWKVDNALQSGNSQESVTEQDSKDSTYSLSSTLTLSKADYEKHKVYACEVTHQGLSSPVTKSFNRGEC",10.9

# Continued by falling Kd, values first:
row,Kd [nM],Binder
1,71.1,"TR01H069-E22Hh/none-Hi-Kn010G3/L0000-k0 (antibody, human IgG1, kappa, L234A L235A, N297A, single-arm) heavy: QVQLVESGGGVVQPGGSLRLSCAASGFTFSNAWMHWVRQAPGKGLEWVAQIKDKSQNYATYYAESVKGRFTISRDDSKNSLYLQMNSLKTEDTAVYYCRYVHYAASYGVDIWGQGTTVTVSSASTKGPSVFPLAPSSKSTSGGTAALGCLVKDYFPEPVTVSWNSGALTSGVHTFPAVLQSSGLYSLSSVVTVPSSSLGTQTYICNVNHKPSNTKVDKKVEPKSCDKTHTCPPCPAPEAAGGPSVFLFPPKPKDTLMISRTPEVTCVVVDVSHEDPEVKFNWYVDGVEVHNAKTKPREEQYASTYRVVSVLTVLHQDWLNGKEYKCKVSNKALPAPIEKTISKAKGQPREPQVYTLPPSRCELTKNQVSLSCAVKGFYPSDIAVEWESNGQPENNYKTTPPVLDSDGSFFLVSKLTVDKSRWQQGNVFSCSVMHEALHNHYTQKSLSLSPDYKDDDDK EPKSSDKTHTCPPCPAPELLGGPSVFLFPPKPKDTLMISRTPEVTCVVVDVSHEDPEVKFNWYVDGVEVHNAKTKPREEQYNSTYRVVSVLTVLHQDWLNGKEYKCKVSNKALPAPIEKTISKAKGQPREPQVCTLPPSRDELTKNQVSLWCLVKGFYPSDIAVEWESNGQPENNYKTTPPVLDSDGSFFLYSKLTVDKSRWQQGNVFSCSVMHEALHNRYTQKSLSLSP light: DIVMTQSPLSLPVTPGEPASISCRSSQSLVHSNRNTYLHWYQQKPGQAPRLLIYKVSNRFSGVPDRFSGSGSGTDFTLKISRVEAEDVGVYYCGQGTQVPYTFGQGTKLEIKRTVAAPSVFIFPPSDEQLKSGTASVVCLLNNFYPREAKVQWKVDNALQSGNSQESVTEQDSKDSTYSLSSTLTLSKADYEKHKVYACEVTHQGLSSPVTKSFNRGEC"
2,12.1,"TR01H067-E22Hh/none-Hi-Kn010G3/TR01L019-k0 (antibody, human IgG1, kappa, L234A L235A, N297A, single-arm) heavy: QVQLVESGGGLVQPGRSLRLSCAASGFTFSNAWMHWVRQAPGKGLEWVAQIKDKSQNYATYYAESVKGRFTISRDDSKNSLYLQMNSLKTEDTAVYYCRYVHYAASYGVDAWGQGTTVTVSSASTKGPSVFPLAPSSKSTSGGTAALGCLVKDYFPEPVTVSWNSGALTSGVHTFPAVLQSSGLYSLSSVVTVPSSSLGTQTYICNVNHKPSNTKVDKKVEPKSCDKTHTCPPCPAPEAAGGPSVFLFPPKPKDTLMISRTPEVTCVVVDVSHEDPEVKFNWYVDGVEVHNAKTKPREEQYASTYRVVSVLTVLHQDWLNGKEYKCKVSNKALPAPIEKTISKAKGQPREPQVYTLPPSRCELTKNQVSLSCAVKGFYPSDIAVEWESNGQPENNYKTTPPVLDSDGSFFLVSKLTVDKSRWQQGNVFSCSVMHEALHNHYTQKSLSLSPDYKDDDDK EPKSSDKTHTCPPCPAPELLGGPSVFLFPPKPKDTLMISRTPEVTCVVVDVSHEDPEVKFNWYVDGVEVHNAKTKPREEQYNSTYRVVSVLTVLHQDWLNGKEYKCKVSNKALPAPIEKTISKAKGQPREPQVCTLPPSRDELTKNQVSLWCLVKGFYPSDIAVEWESNGQPENNYKTTPPVLDSDGSFFLYSKLTVDKSRWQQGNVFSCSVMHEALHNRYTQKSLSLSP light: DIVMTQSPLSLPVTPGEPASISCQASESPVHSNRNTYLHWYLQKPGQSPQLLIYKVSNRFSGVPDRFSGSGSGTDFTLKISRVEAEDVGVYYCYQGTQVPYTFGQGTKLEIKRTVAAPSVFIFPPSDEQLKSGTASVVCLLNNFYPREAKVQWKVDNALQSGNSQESVTEQDSKDSTYSLSSTLTLSKADYEKHKVYACEVTHQGLSSPVTKSFNRGEC"
